Source: patent publication US20040054158A1 (GENETICS INSTITUTE, published 2004)
One block for each binder: values may come before it.

B2: human DAP-12 expressed on transfected COS cells (other, UniProt O43914 22-113, looked up)
chain: LRPVQAQAQSDCSCSTVSPGVLAGIVMGDLVLTVLIALAVYFLGRLVPRGRGAAEAATRKQRITETESPYQELQGQRSDVYSDLNTQRPYYK
notes: whole, on cells; Negative control transfectant

Key:
[1] = target: T1, murine GL50-2 (mGL50-2) expressed on transfected COS cells (mouse, UniProt Q9JHJ8 44-320); assay: flow cytometry on transfected COS cells
T1 construct: Alternatively spliced form of 347 residues; also called mGL50-B
T1 sequence: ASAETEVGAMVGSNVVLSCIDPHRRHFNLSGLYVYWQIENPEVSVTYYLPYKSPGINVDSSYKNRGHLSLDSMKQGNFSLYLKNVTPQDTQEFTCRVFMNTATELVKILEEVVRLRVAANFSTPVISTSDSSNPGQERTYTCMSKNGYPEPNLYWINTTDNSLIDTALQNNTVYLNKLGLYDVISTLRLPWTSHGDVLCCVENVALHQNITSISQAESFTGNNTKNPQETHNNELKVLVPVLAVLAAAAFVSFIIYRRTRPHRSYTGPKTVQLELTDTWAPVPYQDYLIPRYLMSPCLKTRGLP

[2] = target: T2, murine GL50-1 (mGL50-1) expressed on transfected COS cells (mouse, UniProt Q9JHJ8 47-322); assay: flow cytometry on transfected COS cells
T2 construct: 322 amino acid protein
T2 sequence: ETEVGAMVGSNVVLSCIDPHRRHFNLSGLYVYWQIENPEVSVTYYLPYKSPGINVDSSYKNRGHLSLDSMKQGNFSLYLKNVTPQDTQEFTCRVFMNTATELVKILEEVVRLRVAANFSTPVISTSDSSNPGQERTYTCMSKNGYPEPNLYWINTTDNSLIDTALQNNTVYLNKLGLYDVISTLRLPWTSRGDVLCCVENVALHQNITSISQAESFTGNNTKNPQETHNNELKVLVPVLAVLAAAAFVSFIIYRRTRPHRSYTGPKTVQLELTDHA

CD28-Ig = target: T3, CD28-Ig (mouse, UniProt P31041 20-150); assay: flow cytometry on transfected COS cells
T3 construct: not shown: Ig part not described
T3 sequence (looked up): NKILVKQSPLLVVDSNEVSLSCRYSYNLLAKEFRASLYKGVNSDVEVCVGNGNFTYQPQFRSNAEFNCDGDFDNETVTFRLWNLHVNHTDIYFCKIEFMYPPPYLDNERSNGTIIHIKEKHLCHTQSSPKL

[3] = target: T4, mouse B7-1 on cells (WEHI 231, undifferentiated ES cells) (mouse, UniProt Q00609 38-306); assay: flow cytometry on WEHI 231 cells with blocking anti B7-1 and B7-2 antibodies
T4 construct: whole, on cells; also called CD80
T4 sequence (looked up): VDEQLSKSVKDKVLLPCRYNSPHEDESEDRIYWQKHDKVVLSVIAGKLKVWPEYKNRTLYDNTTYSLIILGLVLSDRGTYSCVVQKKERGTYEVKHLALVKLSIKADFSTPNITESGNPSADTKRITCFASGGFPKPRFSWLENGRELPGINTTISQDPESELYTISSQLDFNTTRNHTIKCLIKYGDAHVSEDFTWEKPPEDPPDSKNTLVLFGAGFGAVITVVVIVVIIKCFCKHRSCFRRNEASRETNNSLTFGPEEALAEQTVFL

[4] = target: T5, mouse B7-2 on WEHI 231 cells (mouse, UniProt P42082 24-309); assay: as above
T5 construct: whole, on cells; also called CD86
T5 sequence (looked up): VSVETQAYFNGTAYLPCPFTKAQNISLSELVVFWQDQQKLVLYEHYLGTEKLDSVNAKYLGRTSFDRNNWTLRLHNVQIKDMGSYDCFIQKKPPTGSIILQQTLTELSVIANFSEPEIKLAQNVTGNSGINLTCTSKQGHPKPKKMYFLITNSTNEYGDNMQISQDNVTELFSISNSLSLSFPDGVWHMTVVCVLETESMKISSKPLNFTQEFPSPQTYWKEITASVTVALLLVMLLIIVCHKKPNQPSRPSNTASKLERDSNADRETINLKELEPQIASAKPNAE

[5] = target: B2; assay: flow cytometry on transfected COS cells

binding result [1]: binds
binding result [2]: binds
B1: hICOS-mIgG2am (Fc fusion)
chain: EINGSANYEMFIFHNGGVQILCKYPDIVQQFKMQLLKGGQILCDLTKTKGSGNTVSIKSLKFCHSQLSNNSVSFFLYNLDHSHANYYFCNLSIFDPPPFKVTLTGGYLHIYESQLCCQLKFEPRGPTIKPCPPCKCPAPNLEGGPSVFIFPPKIKDVLMISLSPIVTCVVVDVSEDDPDVQISWFVNNVEVHTAQTQTHREDYNSTLRVVSALPIQHQDWMSGKAFACAVNNKDLPAPIERTISKPKGSVRAPQVYVLPPPEEEMTKKQVTLTCMVTDFMPEDIYVEWTNNGKTELNYKNTEPVLDSDGSYFMYSKLRVEKKNWVERNSYSCSVVHEGLHNHHTTKSFSRTPGK
notes: Fusion of human ICOS with the mutated mouse IgG2a domain

Binder: B2
binding result (CD28-Ig): no binding (tested: 5 µg/ml of fusion protein)

binding result [3]: no binding
binding result [4]: no binding
B3: mICOS-mIgG2am (Fc fusion)
chain: EINGSADHRMFSFHNGGVQISCKYPETVQQLKMRLFREREVLCELTKTKGSGNAVSIKNPMLCLYHLSNNSVSFFLNNPDSSQGSYYFCSLSIFDPPPFQERNLSGGYLHIYESQLCCQLKLEPRGPTIKPCPPCKCPAPNLEGGPSVFIFPPKIKDVLMISLSPIVTCVVVDVSEDDPDVQISWFVNNVEVHTAQTQTHREDYNSTLRVVSALPIQHQDWMSGKAFACAVNNKDLPAPIERTISKPKGSVRAPQVYVLPPPEEEMTKKQVTLTCMVTDFMPEDIYVEWTNNGKTELNYKNTEPVLDSDGSYFMYSKLRVEKKNWVERNSYSCSVVHEGLHNHHTTKSFSRTPGK
notes: Fusion of mouse ICOS with a mouse IgG2a domain mutated to reduce effector function; also called ICOS-Ig; ICOS Ig
binding result [5]: no binding (tested: 5 µg/ml of fusion protein)
